Data set [1] addresses T1, β-lactoglobulin (Bos taurus, UniProt P02754).
T1 sequence (P02754 17-178): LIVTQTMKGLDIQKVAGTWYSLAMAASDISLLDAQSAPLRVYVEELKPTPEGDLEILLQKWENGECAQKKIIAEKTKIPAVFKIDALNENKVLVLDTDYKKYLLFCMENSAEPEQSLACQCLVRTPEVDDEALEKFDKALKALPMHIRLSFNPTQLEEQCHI
The data set is described as follows: Wax-lactoglobulin binding by intrinsic tryptophan fluorescence intensity and anisotropy. The source says:
Changes in protein concentration alone are unlikely to affect the rate of evaporation of tears. […] (See Pandit J. C., Nagyova B., Bron A. J., et al, Physical properties of stimulated and unstimulated tears. Exp Eye Res. 1999; 68:247-253.) In this embodiment of the present invention, wax interacted with lactoglobulin. Wax-lactoglobulin binding was quantified by measuring changes in the intrinsic fluorescence intensity of tryptophan. Tryptophan fluorescence is sensitive to local changes in electrostatic fields. Therefore, variations in the local environment/polarity of tryptophan leads to changes in its fluorescence properties as described by Vivian and Callis. Vivian J. T., Callis P. R., Mechanisms of tryptophan fluorescence shifts in proteins, Biophys. J. 2001; 80:2093-2109.) Substrate binding and protein structural changes are commonly measured by observing changes in tryptophan fluorescence intensity, wavelength maximum, band shape, anisotropy, fluorescence lifetimes, and energy transfer.
A wax emulsion that is stable for at least 4 weeks was prepared as described previously by the inventors. […] A quantified amount of wax (0.156 to 1.25 μL/mL) was mixed with 1 mg/mL lactoglobulin in phosphate buffered saline and equilibrated for 12 hours at 34° C. under an atmosphere of argon. […] Emission spectra were measured from 300 to 400 nm with an excitation wavelength of 270 nm. […]

Data set [2] in a line: Evaporation rates measured in vitro (gravimetric). In kind it is physicochemical. Particulars: for Influence on the rate of evaporation: concentrations of 50 to 100 mg/mL, at 25 or 34° C. Here is the method: Samples (0.750 mL) for evaporation rate measurements were placed into a plastic container 0.8 cm deep and 1.500 cm inside diameter. Temperature and relative humidity were recorded at the start and end of each experiment. Samples were weighed every minute for 10 minutes using a Mettler-Toledo AT261 analytical balance (Columbus, Ohio). The balance was calibrated and certified by a Mettler technician prior to use. The weights of as many as 7 samples were measured sequentially, i.e., after measuring the weights of sample 1 for ten minutes, the weights of sample 2 were measured for ten minutes, followed by the next sample. The weights of four 10 minute weighing sequences were plotted versus time and the rate of evaporation was calculated from the slope of the data in the plots that were fitted using least squares linear regression analysis. The rate of evaporation at 34° C. was measured using four, 3-minute weighing sequences instead of ten.
The rate of evaporation with 20 standard cubic feet per minute (SCFM) of dry air flowing over the sample at 24° C. was measured. Air was completely dried using a Keaser desiccant dry, model KLDW-10S (Columbus, Ohio) attached to a Purimetrics Compressor, model 750-2 (Edina, Minn.) and a 80 gallon air receiver tank. Complete removal of water vapor from the air was confirmed using an infrared spectrometer. The sample was placed under a flow of dry air for 1 minute and removed from the dry air for two minutes and weighed in a Mettler-Toledo analytical balance. This cycle was repeated ten times. The rate of evaporation in dry air was calculated from the total rate of evaporation minus the contribution of the evaporation in the room air. Evaporation rate was expressed as μm/min, the rate of thickness lost at the surface per minute. Changes in the thickness of the tear film (˜5 μm) due to evaporation can be estimated readily by expressing the evaporation rate in μm/min.

Setting [3] is: 50 mg/mL, 24.8° C., relative humidity 40.6%.
[4] abbreviates: 100 mg/mL, 24.8° C., relative humidity 40.6%.

As to `CCCCCCCC/C=C\CCCCCCCC(=O)OCCCCCCCCCCCCCCCC` [palmityloleate wax, palmityloleate], in data set [1] (as little as 20 nmoles (~0.1 μg) wax added to 1 mg β-lactoglobulin in 1 ml phosphate buffered saline), the “Fluorescence intensity of the tryptophan residues in lactoglobulin” value is listed as “caused a decrease in the fluorescence intensity”. The “Tryptophan anisotropy of lactoglobulin” value in data set [1] (with the addition of wax, n=6, 0.138±0.009 with no wax, p=0.04, SEM) amounted to 0.115±0.004.

Consider Lysozyme, for which the “Rate of Evaporation” value in data set [2] (setting [3]) and in data set [2] (setting [4]) was 3.0 μm/min in each case. Moreover, the “Influence on the rate of evaporation” value in data set [2] is “did not significantly influence the rate of evaporation”.

Mucin: the “Rate of Evaporation” value stood at 2.9 μm/min in data set [2] (setting [3]) and 3.0 μm/min in data set [2] (setting [4]). For the same compound, the “Influence on the rate of evaporation” value in data set [2] is recorded as “did not significantly influence the rate of evaporation”.

On to “β-Lactoglobulin: model tear protein, used as a model for lipocalin”, for which the “Rate of Evaporation” value in data set [2] (setting [3]) is 3.08 μm/min; in data set [2] (setting [4]) it was 3.12 μm/min; in data set [2] (100 mg/mL, 34° C.), 9.1 μm/min. For the same compound, the “Influence on the rate of evaporation” value in data set [2] was “did not significantly influence the rate of evaporation”.

The values above are taken from patent US20110130457A1, “Wax-Based Emulsion for the Treatment of Dry Eye Conditions” (UNIVERSITY OF LOUISVILLE RESEARCH FOUNDATION, INC., priority 2008, published 2011).
